Test [1] deals with rituximab (human monoclonal IgG1) (human). The experiment in a line: SPR; rituximab covalently immobilised (NHS/EDC) on a CM5 chip, Biacore X100; Z3 flowed over in HBS-EP+ (10 mM HEPES, 150 mM NaCl, 3 mM EDTA, 0.005% Tween-20, pH 7.4); 1:1 Langmuir model; KD calculated as koff/kon.
The target is the same in test [2]. The experiment in a line: differential scanning fluorimetry; equimolar (1:1) mixture of rituximab and Z3 against rituximab alone; SYPRO orange, 20 mM Tris, pH 7.4.
Test [3] has the same target. The experiment in a line: ITC; Z3 titrated into rituximab in the sample cell; PBS, pH 7.4, 25 °C; MicroCal PEAQ-ITC; triplicate.
For test [4], the target named is linear Z3 (linear trimer of the Staphylococcus aureus protein A Z domain) (Staphylococcus aureus). The experiment in a line: AUC; sedimentation velocity at 40,000 and 60,000 rpm, PBS (Dulbecco), 20 °C, 220 nm; molar mass transformation.

pKd: −log10 of the molar value. Some results are limits rather than exact numbers.

The values below come from article PMC9865183.

rituximab (human monoclonal IgG1) (human), sequence (heavy, as listed by the source, chain 1 of 2): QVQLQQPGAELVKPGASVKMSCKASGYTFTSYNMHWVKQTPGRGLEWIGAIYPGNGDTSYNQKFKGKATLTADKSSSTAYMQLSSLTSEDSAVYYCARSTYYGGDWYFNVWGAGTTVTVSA
rituximab (human monoclonal IgG1) (human), sequence (light, as listed by the source, chain 2 of 2): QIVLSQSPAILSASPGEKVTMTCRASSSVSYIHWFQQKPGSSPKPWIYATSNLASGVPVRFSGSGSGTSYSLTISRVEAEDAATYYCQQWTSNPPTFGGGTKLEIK

On to “cyclic Z3 (intein-cyclized trimer of the Staphylococcus aureus protein A Z domain) (designed binder)”, for which, in test [1], the pKd was 8.48, the koff is 0.00073 s⁻¹ and the kon is 220000 M⁻¹ s⁻¹. Besides, in test [2], the increase of the lower transition temperature of rituximab was found to be 4.9 °C and the upward shift of the 81.3 °C transition of rituximab was 1.5 °C. In test [3], the pKd was 8.12, the dH is -32.7 kcal/mol and the stoichiometry N (IgG1 molecules per cyclic Z3 molecule) is 2.1.
Consider “linear Z3 (linear trimer of the Staphylococcus aureus protein A Z domain) (designed binder)”, for which, in test [1], the pKd is 8.54, the koff is 0.00092 s⁻¹ and the on-rate constant (kon) is 310000 M⁻¹ s⁻¹. For the same substance, the stoichiometry N in test [4] is less than 3. In test [2], the increase of the lower transition temperature of rituximab was 4.9 °C and the upward shift of the 81.3 °C transition of rituximab was determined as 3.3 °C. In test [3], this substance gave a negative logarithm of the Kd (pKd) of 8.55, a dH of -33 kcal/mol and a stoichiometry N (IgG1 molecules per linear Z3) of 1.9.
